Positions count from the first letter of the chain named. Where “and” joins values, the source holds several entries; their conditions need not be identical. Identical values can stand only once.
T1: corticotropin-releasing hormone (CRH) peptide (human and mouse, not fully specified)
T1 peptide: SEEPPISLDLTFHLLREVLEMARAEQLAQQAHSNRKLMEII

T2: biotinylated CRH (human and mouse, not fully specified; biotinylated, position not stated)
T2 construct: also called Biotin-CRH; biotin-labeled CRH
T2 peptide: T1 peptide

T3: CRH (NT Biotin) (human and mouse, not fully specified; biotin at the N-terminus)
T3 peptide: T1 peptide

T4: CRH (CT Biotin) (human and mouse, C-terminal K-Biotin)
T4 construct: also called Peptide 4 (CRH-Biotin)
T4 peptide: T1 peptide

T5: hUCN1 (NT Biotin) (human, UniProt P55089 83-122, biotin at the N-terminus)
T5 construct: also called human UCN1 (NT biotin)
T5 peptide (looked up): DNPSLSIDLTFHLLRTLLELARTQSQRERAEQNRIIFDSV

T6: N-Terminal CRH (human and mouse, C-terminal K-Biotin)
T6 construct: also called N-Ter-CRH (CT-Bion)
T6 peptide: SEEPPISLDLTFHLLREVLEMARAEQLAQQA

T7: human UCN2 peptide (human, UniProt Q96RP3 72-109, limits assumed, not fully specified; biotin at N- or C-terminus in the ELISA)
T7 construct: also called hUCN2; hUCN2 (NT Biotin)
T7 peptide (looked up): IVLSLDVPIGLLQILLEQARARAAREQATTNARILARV

T8: human UCN3 peptide (human, UniProt Q969E3 120-157, not fully specified; biotin at N- or C-terminus in the ELISA)
T8 construct: also called hUCN3; hUCN3 (NT Biotin)
T8 peptide (looked up): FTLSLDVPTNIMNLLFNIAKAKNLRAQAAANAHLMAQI

T9: human UCN1 peptide (human, UniProt P55089 83-122)
T9 peptide (looked up): T5 peptide (looked up)

T10: hUCN1 (CT Biotin) (human, UniProt P55089 83-122, biotin at the C-terminus)
T10 construct: also called human UCN1 (CT biotin)
T10 peptide (looked up): T5 peptide (looked up)

B1: PR005660 (antibody, human IgG1, kappa, V domains shown)
VH: EVQLVESGGVLVQPGGSLRLSCAASGFTFSSYWMTWVRQAPGKGLEWVANIKQEGSEKYYVDSVKGRFTISRDNAKNSLFLQMNSLRAEDTAVYYCARTLIFDYWGQGTLVTVSS
VL: DIVMTQSPLSLPVTPGEPASISCRSSQSLLHSTGYQSLEWYLQKPGQSPQLLIYLGSNRASGVPDRFSGSGSGTDFTLKISRVEAEDVGIYYCMQTLQTPITFGQGTRLEIKR
notes: PTM-removal variant of PR004290
B2: PR302055 (antibody, human IgG1, kappa, V domains shown)
VH: EMQLVESGGGLVQPGGSLKLSCAASGFTFSNYWMNWVRQASGKGLEWVAEIRLKSNNYATHYAESVKGRFTISRDDSKSTVYLQMNSLKTEDTAVYYCTVGTLVYWGQGTLVTVSS
VL: DIQLTQSPSSLSASVGDRVTITCRASQSVSTSTYNYMHWFQQKPGKAPKLLIKFASNLESGVPSRFSGSGSGTDFTLTISSLQPEDTATYYCQHSWEIPYTFGQGTKLEIKR
notes: Humanized variant of PR301777
B3: PR302069 (antibody, human IgG1, kappa, V domains shown)
VH: B2 VH with Q13K, K19R, S41P
VL: B2 VL
notes: Humanized variant of PR301777
B4: PR303394 (antibody, human IgG1, kappa, V domains shown)
VH: EVQLQQSGPELVKPGVSMKISCKASGYSFTDSTMNWVKQSHGKNLEWIGLIHPDNGGTIYNQKFKGKATLTVHKSSSTAYMELLSLTSEDSAVYYCANGFAYWGQGTLVTVSA
VL: DVVMTQTPLSLPVSLGDQASISCRSSQSLLHSNGNTYLHWYLQKPGQSPELLIYKVSNRFSGVPDRFSGSGSGTDFTLKISRVEAEDLGVYFCSQSTHVPLTFGAGTKLELKR
notes: also called analog of CTRND05

Assays:
[1] = molecular target: T1, corticotropin-releasing hormone (CRH) …; experiment: cell-based or functional assay
biotinylated CRH [2] = molecular target: T2, biotinylated CRH; experiment: Octet BLI, biotinylated CRH on SA sensor
CRH (NT Biotin) = molecular target: T3, CRH (NT Biotin); experiment: ELISA, biotin peptide on streptavidin plate
Description: (§1) Streptavidin (Thermo, Cat: 21125) was diluted in PBS to a concentration of 2 μg/ml. 100 μl of diluted streptavidin was added per well to ELISA microplates, and the plates were incubated overnight at 4° C. […] 100 μL of 3,3′,5,5′-tetramethylbenzidine (TMB) substrate (Biopanda, Cat: TMB-S-003) was added, and the plates were incubated at room temperature for 15 minutes. 100 μL of ELISA stopping solution (Solarbio, Cat #: C1058) was added to terminate the reaction, and the optical density at 450 nm (OD450 nm) was determined by an ELISA plate reader (Molecular Devices, Spectra max 384 plus).

CRH (CT Biotin) = molecular target: T4, CRH (CT Biotin); experiment: ELISA, biotin peptide on streptavidin plate
Description: as §1

hUCN1 (NT Biotin) = molecular target: T5, hUCN1 (NT Biotin); experiment: ELISA, biotin peptide on streptavidin plate
Description: as §1

N-Terminal CRH = molecular target: T6, N-Terminal CRH; experiment: ELISA, biotin peptide on streptavidin plate
Description: as §1

human UCN2 peptide = molecular target: T7, human UCN2 peptide; experiment: ELISA on streptavidin-captured hUCN2 (NT biotin) and hUCN2 (CT biotin), mAb at 100 nM and 10 nM, OD450
Description: (§2) Streptavidin (Thermo, Cat: 21125) was diluted in PBS with a concentration of 2 μg/mL. 100 μL of diluted streptavidin was added per well to ELISA microplates, and the plates were incubated overnight at 4° C. Plates were blocked with ELISA blocking solution (containing 2% w/v BSA, 0.05% (v/v) Tween-20, pH 7.4 PBS buffer) at 37° C. for 1 hour, and then incubated with either 1 μg/mL hUCN1 (NT Biotin), hUCN1 (CT Biotin), hUCN2 (NT Biotin), hUCN2 (CT Biotin), hUCN3 (NT Biotin), or hUCN3 (CT Biotin) for 1 hour at 37° C. […] 100 μl of TMB Substrate (Biopanda, Cat: TMB-S-003) was added, and the plates were incubated at room temperature for 15 minutes. 100 μL of ELISA stopping solution (Solarbio, Cat #: C1058) was then added to terminate the reaction, and the OD450 nm was determined by an ELISA plate reader (Molecular Devices, Spectra max 384 plus).

human UCN3 peptide = molecular target: T8, human UCN3 peptide; experiment: ELISA on streptavidin-captured hUCN3 (NT biotin) and hUCN3 (CT biotin), mAb at 100 nM and 10 nM, OD450
Description: as §2

biotinylated CRH [3] = molecular target: T2, biotinylated CRH; experiment: competitive ELISA, coated 1st mAb; competitor hIgG1
Description: (§3) For epitope binding, a competitive ELISA was performed. Specifically, 1 μg/ml of capture antibody, 100 μl/well, was coated on a 96 well-plate at 4° C. overnight. Plates were blocked with ELISA blocking solution (containing 2% w/v BSA, 0.05% (v/v) Tween-20, pH 7.4 PBS buffer) at 37° C. for 1 hour. […] Subsequently, plates were washed and incubated with Streptavidin-Peroxidase (SIGMA, Cat: 52438-250UG) at 37° C. for 1 hour. 100 μL of 3,3′,5,5′-tetramethylbenzidine (TMB) substrate (Biopanda, Cat: TMB-S-003) was added, and the plates were incubated at room temperature for 15 minutes. 100 μL of ELISA stopping solution (Solarbio, Cat #: C1058) was added to terminate the reaction, and the optical density at 450 nm (OD450 nm) was determined by an ELISA plate reader (Molecular Devices, Spectra max 384 plus).

biotinylated CRH [4] = molecular target: T2, biotinylated CRH; experiment: competitive ELISA, coated 1st mAb; competitor PR004290
Description: as §3

biotinylated CRH [5] = molecular target: T2, biotinylated CRH; experiment: competitive ELISA, coated 1st mAb; competitor PR005660
Description: as §3

biotinylated CRH [6] = molecular target: T2, biotinylated CRH; experiment: competitive ELISA, coated 1st mAb; competitor PR006148
Description: as §3

biotinylated CRH [7] = molecular target: T2, biotinylated CRH; experiment: competitive ELISA, coated 1st mAb; competitor PR006152
Description: as §3

biotinylated CRH [8] = molecular target: T2, biotinylated CRH; experiment: competitive ELISA, coated 1st mAb; competitor PR301777
Description: as §3

biotinylated CRH [9] = molecular target: T2, biotinylated CRH; experiment: competitive ELISA, coated 1st mAb; competitor PR302050
Description: as §3

biotinylated CRH [10] = molecular target: T2, biotinylated CRH; experiment: competitive ELISA, coated 1st mAb; competitor PR302055
Description: as §3

biotinylated CRH [11] = molecular target: T2, biotinylated CRH; experiment: competitive ELISA, coated 1st mAb; competitor PR302064
Description: as §3

biotinylated CRH [12] = molecular target: T2, biotinylated CRH; experiment: competitive ELISA, coated 1st mAb; competitor PR302069
Description: as §3

human UCN1 peptide = molecular target: T9, human UCN1 peptide; experiment: cell-based or functional assay
hUCN1 (CT Biotin) = molecular target: T10, hUCN1 (CT Biotin); experiment: ELISA, biotin peptide on streptavidin plate
Description: as §1

Row | Binder | CHO-CRE-hCRHR1 0.5 nM CRH IC50 [1] [pM] | Kd (biotinylated CRH [2]) | EC50 (CRH (NT Biotin)) [pM] | EC50 (CRH (CT Biotin)) [pM] | EC50 (hUCN1 (NT Biotin)) [pM] | EC50 (N-Terminal CRH) [pM] | binding result (human UCN2 peptide) | binding result (human UCN3 peptide) | % Inhibition (biotinylated CRH [3]) [%] | % Inhibition (biotinylated CRH [4]) [%] | % Inhibition (biotinylated CRH [5]) [%] | % Inhibition (biotinylated CRH [6]) [%] | % Inhibition (biotinylated CRH [7]) [%] | % Inhibition (biotinylated CRH [8]) [%] | % Inhibition (biotinylated CRH [9]) [%] | % Inhibition (biotinylated CRH [10]) [%] | % Inhibition (biotinylated CRH [11]) [%] | % Inhibition (biotinylated CRH [12]) [%] | CHO-CRE-hCRHR1 1 nM hUCH1 IC50 (human UCN1 peptide) [pM] | EC50 (hUCN1 (CT Biotin)) [pM]
1 | B1 | 10300 | 120 pM and 40.9 pM | 28 | 54 | 9370 | 76 | no binding (tested: 100 nM) | no binding (tested: 100 nM) | – | – | – | – | – | – | – | – | – | – | – | –
2 | B2 | – | – | – | – | – | – | – | – | 2 | 94 | 94 | 95 | 95 | 94 | 95 | 95 | 95 | 95 | – | –
3 | B3 | – | – | – | – | – | – | – | – | 0 | 93 | 94 | 95 | 94 | 94 | 95 | 95 | 95 | 95 | – | –
4 | B4 | 2770 | 13.6 pM | 28 | – | 18 | – | no binding (tested: 100 nM) | no binding (tested: 100 nM) | – | – | – | – | – | – | – | – | – | – | 42500 | 22

Source: US20260042834A1 (HBM ALPHA THERAPEUTICS, published 2026)
